The values below come from paper PMC6783512, “Dimethylaminomicheliolide (DMAMCL) Suppresses the Proliferation of Glioblastoma Cells via Targeting Pyruvate Kinase 2 (PKM2) and Rewiring Aerobic Glycolysis” (Frontiers in Oncology, 2019).

This series concerns the molecule itself. Description: SEC + AUC; 2 mL of 3 mg/mL purified PKM2 on Superdex 200 pg 16/600, 1 mL/min, UV 280 nm; peaks identified by analytical ultracentrifuge (results: sucrose gradient ultracentrifugation); monomer and tetramer fractions isolated.

B1: recombinant PKM2 C424S (enzyme)
chain: not shown
notes: Pyruvate kinase M2 (PKM2) with C424S; likely made in E. coli like the wild type; also called rPKM2 protein with C424 mutation; source: purified (plasmid pET28a-PKM2 C424S)
As to B1, the “stoichiometry N” value stood at 4.

The term stoichiometry N denotes a count of units in the complex or per binding partner.
